B1: Hammerhead Ribozyme (parent)
chain: ACCGGAUGUGCUUUCCGGUCUGAUGAGUCCGUGAGGACGAAACAG

Variants of: B1
Assay: self-cleavage, relative activity (ratio to wild type); higher = more cleavage; co-transcriptional

Variant	self-cleavage
G10C C30A	0.989
G10C C30G	0.675
G10C C30U	1.28
G10C C38A	0.79
G10C C38G	0.582
G10C C38U	1.16
G10C C43A	0.354
G10C C43G	0.381
G10C C43U	0.524
G10C G17A	0.926
G10C G17C	0.614
G10C G17U	0.932
G10C G18A	1.06
G10C G18C	0.614
G10C G18U	0.746
G10C G22A	0.338
G10C G22C	0.28
G10C G22U	0.335
G10C G25A	0.368
G10C G25C	0.397
G10C G25U	0.277
G10C G27A	0.887
G10C G27C	0.994
G10C G27U	0.555

Variant	self-cleavage
G10C G31A	1.25
G10C G31C	0.704
G10C G31U	1.19
G10C G33A	1.14
G10C G33C	0.937
G10C G33U	0.934
G10C G35A	0.848
G10C G35C	0.497
G10C G35U	0.818
G10C G36A	0.586
G10C G36C	0.84
G10C G36U	0.56
G10C G39A	0.368
G10C G39C	0.324
G10C G39U	0.307
G10C G45A	0.996
G10C G45C	0.783
G10C G45U	0.812
G10C U12A	0.954
G10C U12C	1.26
G10C U12G	1.09
G10C U13A	1.03
G10C U13C	1.03
G10C U13G	1.24

Variant	self-cleavage
G10C U14A	0.796
G10C U14C	1.28
G10C U14G	0.606
G10C U19A	0.317
G10C U19C	0.503
G10C U19G	0.353
G10C U21A	0.533
G10C U21C	0.673
G10C U21G	0.414
G10C U24A	0.811
G10C U24C	0.853
G10C U24G	1.06
G10C U28A	0.381
G10C U28C	1.01
G10C U28G	0.38
G10C U32A	1.09
G10C U32C	1.3
G10C U32G	0.638
G10U	1.07
G10U A23C	0.47
G10U A23G	0.388
G10U A23U	0.421
G10U A26C	0.439
G10U A26G	0.317

Variant	self-cleavage
G10U A26U	0.873
G10U A34C	1.13
G10U A34G	0.942
G10U A34U	0.864
G10U A37C	0.934
G10U A37G	0.877
G10U A37U	0.768
G10U A40C	0.548
G10U A40G	0.36
G10U A40U	0.338
G10U A41C	0.422
G10U A41G	0.372
G10U A41U	0.358
G10U A42C	0.45
G10U A42G	0.344
G10U A42U	0.304
G10U A44C	0.534
G10U A44G	1.57
G10U A44U	0.686
G10U C11A	1.25
G10U C11G	1.2
G10U C11U	1.14
G10U C15A	0.817
G10U C15G	0.826

Variant	self-cleavage
G10U C15U	1.07
G10U C16A	1.06
G10U C16G	1.01
G10U C16U	1.17
G10U C20A	0.42
G10U C20G	0.343
G10U C20U	0.579
G10U C29A	0.658
G10U C29G	0.621
G10U C29U	0.94
G10U C30A	0.844
G10U C30G	1
G10U C30U	1.07
G10U C38A	0.645
G10U C38G	0.848
G10U C38U	1.09
G10U C43A	0.354
G10U C43G	0.405
G10U C43U	0.537
G10U G17A	0.957
G10U G17C	0.649
G10U G17U	0.848
G10U G18A	0.836
G10U G18C	0.682

Variant	self-cleavage
G10U G18U	0.877
G10U G22A	0.354
G10U G22C	0.351
G10U G22U	0.351
G10U G25A	0.313
G10U G25C	0.375
G10U G25U	0.314
G10U G27A	0.825
G10U G27C	0.861
G10U G27U	0.507
G10U G31A	0.989
G10U G31C	0.998
G10U G31U	0.736
G10U G33A	1.13
G10U G33C	1.1
G10U G33U	1.05
G10U G35A	0.838
G10U G35C	0.685
G10U G35U	0.844
G10U G36A	0.65
G10U G36C	0.929
G10U G36U	0.587
G10U G39A	0.405
G10U G39C	0.379

Variant	self-cleavage
G10U G39U	0.313
G10U G45A	0.694
G10U G45C	0.828
G10U G45U	0.926
G10U U12A	0.87
G10U U12C	0.689
G10U U12G	0.773
G10U U13A	1.48
G10U U13C	1.11
G10U U13G	0.674
G10U U14A	0.822
G10U U14C	0.952
G10U U14G	0.709
G10U U19A	0.347
G10U U19C	0.665
G10U U19G	0.435
G10U U21A	0.605
G10U U21C	0.896
G10U U21G	0.578
G10U U24A	1.01
G10U U24C	1.13
G10U U24G	1.16
G10U U28A	0.771
G10U U28C	1.18

Variant	self-cleavage
G10U U28G	0.664
G10U U32A	0.896
G10U U32C	0.694
G10U U32G	0.758
C11A	1.12
C11A A23C	0.491
C11A A23G	0.371
C11A A23U	0.401
C11A A26C	0.725
C11A A26G	0.28
C11A A26U	1.03
C11A A34C	0.731
C11A A34G	0.996
C11A A34U	0.771
C11A A37C	1.12
C11A A37G	1.28
C11A A37U	0.633
C11A A40C	0.587
C11A A40G	0.346
C11A A40U	0.29
C11A A41C	0.371
C11A A41G	0.364
C11A A41U	0.273
C11A A42C	0.284

Variant	self-cleavage
C11A A42G	0.241
C11A A42U	0.282
C11A A44C	0.569
C11A A44G	1.57
C11A A44U	0.666
C11A C15A	0.851
C11A C15G	1.15
C11A C15U	1.01
C11A C16A	1.41
C11A C16G	1.1
C11A C16U	0.985
C11A C20A	0.452
C11A C20G	0.319
C11A C20U	0.681
C11A C29A	0.783
C11A C29G	0.809
C11A C29U	1.08
C11A C30A	1.1
C11A C30G	0.955
C11A C30U	0.87
C11A C38A	0.892
C11A C38G	0.881
C11A C38U	1.1
C11A C43A	0.357

Variant	self-cleavage
C11A C43G	0.353
C11A C43U	0.616
C11A G17A	0.717
C11A G17C	0.506
C11A G17U	1
C11A G18A	0.839
C11A G18C	0.586
C11A G18U	1.04
C11A G22A	0.348
C11A G22C	0.35
C11A G22U	0.246
C11A G25A	0.342
C11A G25C	0.284
C11A G25U	0.329
C11A G27A	0.928
C11A G27C	0.724
C11A G27U	0.684
C11A G31A	1.21
C11A G31C	1.12
C11A G31U	1.08
C11A G33A	1.22
C11A G33C	1.27
C11A G33U	1.21
C11A G35A	0.981

Variant	self-cleavage
C11A G35C	0.887
C11A G35U	0.902
C11A G36A	0.847
C11A G36C	0.911
C11A G36U	0.762
C11A G39A	0.303
C11A G39C	0.438
C11A G39U	0.29
C11A G45A	0.778
C11A G45C	0.97
C11A G45U	1.05
C11A U12A	0.977
C11A U12C	1.08
C11A U12G	1.61
C11A U13A	1.46
C11A U13C	1.01
C11A U13G	0.853
C11A U14A	0.829
C11A U14C	1.17
C11A U14G	1.27
C11A U19A	0.358
C11A U19C	0.603
C11A U19G	0.392
C11A U21A	0.895

Variant	self-cleavage
C11A U21C	0.848
C11A U21G	0.713
C11A U24A	1.14
C11A U24C	1.13
C11A U24G	1.34
C11A U28A	1.04
C11A U28C	1.1
C11A U28G	0.964
C11A U32A	1.4
C11A U32C	1.06
C11A U32G	1.01
C11G	1.12
C11G A23C	0.549
C11G A23G	0.282
C11G A23U	0.41
C11G A26C	0.725
C11G A26G	0.393
C11G A26U	1.05
C11G A34C	0.893
C11G A34G	1.06
C11G A34U	1.07
C11G A37C	1.11
C11G A37G	1.02
C11G A37U	0.897

Variant	self-cleavage
C11G A40C	0.838
C11G A40G	0.413
C11G A40U	0.273
C11G A41C	0.366
C11G A41G	0.413
C11G A41U	0.382
C11G A42C	0.422
C11G A42G	0.303
C11G A42U	0.326
C11G A44C	0.769
C11G A44G	1.8
C11G A44U	0.648
C11G C15A	0.824
C11G C15G	0.88
C11G C15U	0.986
C11G C16A	0.865
C11G C16G	0.999
C11G C16U	1.23
C11G C20A	0.477
C11G C20G	0.261
C11G C20U	0.695
C11G C29A	0.786
C11G C29G	0.82
C11G C29U	1.28

Variant	self-cleavage
C11G C30A	1.26
C11G C30G	1.22
C11G C30U	1.28
C11G C38A	0.718
C11G C38G	0.692
C11G C38U	1.09
C11G C43A	0.311
C11G C43G	0.29
C11G C43U	0.483
C11G G17A	0.511
C11G G17C	0.273
C11G G17U	0.589
C11G G18A	0.553
C11G G18C	0.426
C11G G18U	0.725
C11G G22A	0.304
C11G G22C	0.338
C11G G22U	0.378
C11G G25A	0.288
C11G G25C	0.326
C11G G25U	0.282
C11G G27A	0.839
